Reference: PMC7067766, “A receptor for the complement regulator factor H increases transmission of trypanosomes to tsetse flies” (Nature Communications, 2020)

B1: bovine FH domain 5 (residues 264-323), as used in SPR (domain or fragment, UniProt Q28085 264-323, looked up)
chain: EITCDPPRIPNGVYRPELSKYRGQDKITYECKKGFFPEIRGTDATCTRDGWVPVPRCAWK
notes: complement factor H, bovine, domain 5 (residues 264-323); N-terminal tags, a TEV site and an extra serine-glycine linker before domain 5; also called domain 5 alone; source: G22 CHO cells, secreted, purified (Ni-NTA)
B2: mouse FH domains 4-5-6 (residues 207-387) (domain or fragment, UniProt P06909 207-387, looked up)
chain: EILCTPPRVENGDGINVKPVYKENERYHYKCKHGYVPKERGDAVCTGSGWSSQPFCEEKRCSPPYILNGIYTPHRIIHRSDDEIRYECNYGFYPVTGSTVSKCTPTGWIPVPRCTLKPCEFPQFKYGRLYYEESLRPNFPVSIGNKYSYKCDNGFSPPSGYSWDYLRCTAQGWEPEVPCVR
notes: complement factor H, mouse, domains 4-5-6 (residues 207-387); pDest12; CD33 signal peptide, ORF, C-terminal GSGSGS linker, AviTag and 10xHis; also called mouse domains 4-5-6; source: G22 CHO cells, secreted, purified (Ni-NTA)
B3: human FH domains 4-5-6 (residues 207-387) (domain or fragment)
chain: not shown
notes: complement factor H, human, domains 4-5-6 (residues 207-387); pDest12; CD33 signal peptide, ORF, C-terminal GSGSGS linker, AviTag and 10xHis; also called human domains 4-5-6; source: G22 CHO cells, secreted, purified (Ni-NTA)
B4: C-terminally biotinylated FHR (residues 25-249, AviTag) (receptor)
chain: NDNLEAELEQTKALCEVAKQLRKLPLLTEERRFEAVGALEESKKAAKEGKKAAKRAEAGAVGGTSEQQQAAKRAREAATVAYEASVRAEAAAMEVKRFARALDSFESEYESVFSGLLRGAAEHGGNETIKQLAKECATAVADDVTPEALTRAAHNLRGLYMQDFAEEYLQEANEAANKLEELQKATAETVRAADAADDAKSEAQEEAAQFPEIDDDDSDEDKEDE
modifications: biotin on the C-terminal AviTag
notes: T. brucei FHR, Tb927.5.4020, residues 25-249, synthetic gene optimized for E. coli in pET15b; TEV site after the His tag; GSGSGSS linker between FHR and the AviTag; also called FHR WT; WT FHR; source: E. coli BL21(DE3), purified (Ni-NTA), biotinylated with BirA; not shown: His6, N-terminal, cleaved; AviTag, C-terminal, kept
B5: bovine FH domains 4-5-6 (residues 207-385) (domain or fragment, UniProt Q28085 207-385, looked up)
chain: EIFCKTPVILNGQAVLPKATYKANERVQYRCAAGFEYGQRGDTICTKSGWTPAPTCIEITCDPPRIPNGVYRPELSKYRGQDKITYECKKGFFPEIRGTDATCTRDGWVPVPRCAWKPCSYPVIKHGRLYYSYRGYFPARVNQQFVYSCDHHFVPPSQRSWDHLTCTAEGWSPEEPCLR
notes: complement factor H, bovine, domains 4-5-6 (residues 207-385); pDest12; CD33 signal peptide, ORF, C-terminal GSGSGS linker, AviTag and 10xHis; source: G22 CHO cells, secreted, purified (Ni-NTA)

Experiments:
Details in all cases: both partners purified
[1] = biological target: B4; assay: SPR; biotinylated FHR or mutant on a streptavidin chip (Biacore T-100/T-200), FH proteins flowed over in twofold dilutions; 20 °C, 10 mM HEPES, 150 mM NaCl, 0.005% Tween-20 pH 7.5; kinetic fit: two-state model (bovine FH) or 1:1 model (bovine domains 4-5-6 and 5)
[2] = biological target: B4; assay: SPR; biotinylated FHR or mutant 2 on a streptavidin chip, mouse or human FH domains 4-5-6 flowed over; 20 °C, 10 mM HEPES, 150 mM NaCl, 0.005% Tween-20 pH 7.5; steady-state analysis
[3] = biological target: T1, bovine complement factor H from serum (bovine (endogenous in bovine serum), UniProt Q28085 19-1236); assay: SPR; biotinylated FHR or mutant on a streptavidin chip (Biacore T-100/T-200), FH proteins flowed over in twofold dilutions; 20 °C, 10 mM HEPES, 150 mM NaCl, 0.005% Tween-20 pH 7.5; kinetic fit: two-state model (bovine FH) or 1:1 model (bovine domains 4-5-6 and 5)
T1 construct: complement factor H, bovine, native serum protein of 145 kDa; also called FH; bovine FH; source: endogenous, bovine serum (Sigma-Aldrich); purified from adult bovine serum (FHR-agarose, eluted with glycine-HCl pH 2.5)
T1 sequence: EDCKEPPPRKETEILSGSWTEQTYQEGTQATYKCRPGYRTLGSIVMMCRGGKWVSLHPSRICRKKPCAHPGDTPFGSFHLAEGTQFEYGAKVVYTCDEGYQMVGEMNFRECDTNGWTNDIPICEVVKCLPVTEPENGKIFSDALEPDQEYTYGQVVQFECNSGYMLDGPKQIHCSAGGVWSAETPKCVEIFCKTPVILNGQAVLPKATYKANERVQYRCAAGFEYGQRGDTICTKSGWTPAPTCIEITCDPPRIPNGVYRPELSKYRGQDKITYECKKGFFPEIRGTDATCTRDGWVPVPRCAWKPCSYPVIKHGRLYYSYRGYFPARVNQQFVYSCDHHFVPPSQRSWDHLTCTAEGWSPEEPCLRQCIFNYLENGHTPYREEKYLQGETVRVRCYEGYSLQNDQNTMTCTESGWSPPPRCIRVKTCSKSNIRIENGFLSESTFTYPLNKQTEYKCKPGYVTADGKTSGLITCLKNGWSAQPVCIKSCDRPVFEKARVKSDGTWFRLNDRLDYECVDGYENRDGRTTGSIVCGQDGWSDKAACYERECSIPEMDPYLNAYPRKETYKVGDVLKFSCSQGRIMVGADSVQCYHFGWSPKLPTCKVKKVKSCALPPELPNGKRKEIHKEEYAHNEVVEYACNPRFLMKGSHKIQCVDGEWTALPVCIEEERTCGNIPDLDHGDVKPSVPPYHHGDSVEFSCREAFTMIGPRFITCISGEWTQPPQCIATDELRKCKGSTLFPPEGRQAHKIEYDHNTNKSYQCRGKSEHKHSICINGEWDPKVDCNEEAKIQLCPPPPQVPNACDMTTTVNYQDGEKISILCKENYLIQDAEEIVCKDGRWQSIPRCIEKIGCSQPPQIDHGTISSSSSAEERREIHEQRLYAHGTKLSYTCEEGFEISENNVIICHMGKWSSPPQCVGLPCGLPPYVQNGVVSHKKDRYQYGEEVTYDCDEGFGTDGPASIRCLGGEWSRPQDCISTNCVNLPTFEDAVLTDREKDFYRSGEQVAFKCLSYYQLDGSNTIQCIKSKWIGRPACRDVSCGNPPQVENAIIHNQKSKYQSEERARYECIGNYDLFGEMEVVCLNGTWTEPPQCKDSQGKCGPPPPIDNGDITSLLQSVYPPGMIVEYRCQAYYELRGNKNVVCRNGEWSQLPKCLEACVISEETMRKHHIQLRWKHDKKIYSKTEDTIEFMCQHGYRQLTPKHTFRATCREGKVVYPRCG

[4] = biological target: T2, recombinant bovine FH, complete (residues 18-1236) (bovine, UniProt Q28085 18-1236); assay: as above
T2 construct: complement factor H, bovine, complete (residues 18-1236); pDest12; CD33 signal peptide, then 10xHis, AviTag, GSGSGS linker and a TEV site before the ORF; also called full-length bovine FH; recombinant FH; source: G22 CHO cells, secreted, purified (Ni-NTA)
T2 sequence (looked up): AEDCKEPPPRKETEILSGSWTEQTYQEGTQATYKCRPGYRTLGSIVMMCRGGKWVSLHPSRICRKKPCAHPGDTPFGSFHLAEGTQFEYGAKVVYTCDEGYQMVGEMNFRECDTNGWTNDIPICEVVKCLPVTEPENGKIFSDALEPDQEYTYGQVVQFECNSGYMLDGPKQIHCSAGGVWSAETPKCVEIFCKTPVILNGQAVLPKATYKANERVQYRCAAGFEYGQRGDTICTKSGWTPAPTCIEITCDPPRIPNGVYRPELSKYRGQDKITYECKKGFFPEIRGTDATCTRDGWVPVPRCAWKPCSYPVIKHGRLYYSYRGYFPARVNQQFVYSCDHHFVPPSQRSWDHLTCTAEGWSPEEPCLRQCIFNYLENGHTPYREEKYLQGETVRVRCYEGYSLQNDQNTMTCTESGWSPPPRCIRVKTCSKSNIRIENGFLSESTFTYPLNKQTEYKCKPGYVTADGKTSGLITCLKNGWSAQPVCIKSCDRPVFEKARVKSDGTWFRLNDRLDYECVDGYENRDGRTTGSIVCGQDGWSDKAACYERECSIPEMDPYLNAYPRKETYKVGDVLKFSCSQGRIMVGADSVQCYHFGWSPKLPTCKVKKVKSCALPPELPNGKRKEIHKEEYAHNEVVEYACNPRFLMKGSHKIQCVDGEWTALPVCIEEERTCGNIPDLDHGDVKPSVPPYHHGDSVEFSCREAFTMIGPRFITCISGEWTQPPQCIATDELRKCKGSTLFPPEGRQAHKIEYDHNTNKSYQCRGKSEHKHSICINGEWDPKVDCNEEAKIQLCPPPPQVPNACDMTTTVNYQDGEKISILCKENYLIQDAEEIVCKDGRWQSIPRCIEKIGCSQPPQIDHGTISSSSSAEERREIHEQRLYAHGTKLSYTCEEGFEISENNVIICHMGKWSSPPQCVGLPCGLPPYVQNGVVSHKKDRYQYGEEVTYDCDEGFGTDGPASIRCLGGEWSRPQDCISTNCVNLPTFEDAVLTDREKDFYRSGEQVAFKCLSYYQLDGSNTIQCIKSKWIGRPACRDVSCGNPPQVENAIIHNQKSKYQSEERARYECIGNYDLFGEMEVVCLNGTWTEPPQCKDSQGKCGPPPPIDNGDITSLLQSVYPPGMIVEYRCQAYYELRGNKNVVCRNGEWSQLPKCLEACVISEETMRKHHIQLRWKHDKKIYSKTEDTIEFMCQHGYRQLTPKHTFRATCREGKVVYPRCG

B1
Kd [1]: 562 nM

B2
Kd [2]: 12000 nM

B3
Kd [2]: 8700 nM

B4
Kd [3]: 153 nM
Kd [4]: 114 nM

B5
Kd [1]: 167 nM
